Measured values as given in US20220098307A1 (WUHAN YZY BIOPHARMA, published 2022).
Residue numbers refer to the chain shown, from its start.

T1: human CEA (human, UniProt P06731 35-685)
T1 sequence: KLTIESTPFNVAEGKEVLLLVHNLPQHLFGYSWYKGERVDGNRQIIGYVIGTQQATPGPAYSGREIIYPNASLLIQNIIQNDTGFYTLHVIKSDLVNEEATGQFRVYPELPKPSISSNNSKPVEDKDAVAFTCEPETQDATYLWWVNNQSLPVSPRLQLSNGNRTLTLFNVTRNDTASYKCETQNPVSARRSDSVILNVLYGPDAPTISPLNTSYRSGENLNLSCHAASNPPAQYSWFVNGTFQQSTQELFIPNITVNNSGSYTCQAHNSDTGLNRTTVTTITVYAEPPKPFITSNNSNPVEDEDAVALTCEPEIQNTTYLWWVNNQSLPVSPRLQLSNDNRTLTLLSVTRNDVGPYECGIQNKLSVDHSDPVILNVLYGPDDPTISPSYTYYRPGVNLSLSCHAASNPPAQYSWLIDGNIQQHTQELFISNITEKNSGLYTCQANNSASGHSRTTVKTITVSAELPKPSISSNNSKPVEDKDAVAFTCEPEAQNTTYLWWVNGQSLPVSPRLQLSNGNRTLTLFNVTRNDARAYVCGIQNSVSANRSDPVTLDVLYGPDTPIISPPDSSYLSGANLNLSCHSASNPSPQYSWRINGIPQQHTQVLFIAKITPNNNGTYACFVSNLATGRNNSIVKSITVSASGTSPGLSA

T2: Human BCMA (human, UniProt Q02223 1-54)
T2 sequence: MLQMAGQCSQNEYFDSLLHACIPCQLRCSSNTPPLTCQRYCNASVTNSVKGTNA

B1: CEA-M3-G2 (bispecific antibody)
chain 1: QVQLVQSGSELKKPGASVKVSCKASGYTFTVFGMNWVRQAPGQGLEWMGWINTKTGEATYVEEFKGRFVFSLDTSVSTAYLQISSLKADDTAVYYCARWDFYDYVEAMDYWGQGTTVTVSSASTKGPSVFPLAPSSKSTSGGTAALGCLVKDYFPEPVTVSWNSGALTSGVHTFPAVLQSSGLYSLSSVVTVPSSSLGTQTYICNVNHKPSNTKVDKKVEPKSCGGGGSGGGGSQVQLVESGGGVVQPGRSLRLSCAASGFTFSTYAMNWVRQAPGKGLEWVARIRSKYNNYATYYADSVKDRFTISRDDSKNTLYLQMNSLRAEDTAVYYCARHGNFGNSYVSWFAYWGQGTLVTVSSASVAAPSVFIFPPSDEQLKSGTASVVCLLNNFYPREAKVQWKVDNALQSGNSQESVTEQDSKDSTYSLSSTLTLSKADYEKHKVYACEVTHQGLSSPVTKSFNRGECDKTHTCPPCPAPPVAGPSVFLFPPKPKDTLMISRTPEVTCVVVDVSHEDPEVQFNWYVDGVEVHNAKTKPREEQFNSTFRVVSVLTVVHQDWLNGKEYKCKVSNKGLPAPIEKTISKTKGQPREPQVYTLPPCRDELTKNQVSLWCLVKGFYPSDIAVEWESNGQPENNYKTTPPVLDSDGSFFLYSKLTVDKSRWQQGNVFSCSVMHEALHNHYTQKSLSLSPGK
chain 2: QTVVTQEPSLTVSPGGTVTLTCRSSTGAVTTSNYANWVQQKPGQAPRGLIGGTNKRAPGVPARFSGSLLGGKAALTLSGVQPEDEAEYYCALWYSNLWVFGGGTKVEIKSSASTKGPSVFPLAPSSKSTSGGTAALGCLVKDYFPEPVTVSWNSGALTSGVHTFPAVLQSSGLYSLSSVVTVPSSSLGTQTYICNVNHKPSNTKVDKKVEPKSC
heavy: QVQLVQSGSELKKPGASVKVSCKASGYTFTVFGMNWVRQAPGQGLEWMGWINTKTGEATYVEEFKGRFVFSLDTSVSTAYLQISSLKADDTAVYYCARWDFYDYVEAMDYWGQGTTVTVSSASTKGPSVFPLAPSSKSTSGGTAALGCLVKDYFPEPVTVSWNSGALTSGVHTFPAVLQSSGLYSLSSVVTVPSSSLGTQTYICNVNHKPSNTKVDKKVEPKSCDKTHTCPPCPAPPVAGPSVFLFPPKPKDTLMISRTPEVTCVVVDVSHEDPEVQFNWYVDGVEVHNAKTKPREEQFNSTFRVVSVLTVVHQDWLNGKEYKCKVSNKGLPAPIEKTISKTKGQPREPQVCTLPPSRDELTKNQVSLSCAVKGFYPSDIAVEWESNGQPENNYKTTPPVLDSDGSFFLVSKLTVDKSRWQQGNVFSCSVMHEALHNRFTQKSLSLSPGK
light: DIQMTQSPSSLSASVGDRVTITCKASQNVGTNVAWYQQKPGKAPKLLIYSASYRYSGVPSRFSGSGSGTDFTFTISSLQPEDIATYYCHQYYTYPLFTFGQGTKVEIKRTVAAPSVFIFPPSDEQLKSGTASVVCLLNNFYPREAKVQWKVDNALQSGNSQESVTEQDSKDSTYSLSSTLTLSKADYEKHKVYACEVTHQGLSSPVTKSFNRGEC
notes: structure 3; CEA x CD3; CH2 G2CH2
B2: CEA-M3-AG2 (bispecific antibody)
chain 1: B1 chain 1 with C475A
chain 2: B1 chain 2
heavy: B1 heavy with C233A
light: B1 light
notes: structure 3; CEA x CD3; CH2 AG2CH2
B3: CEA-M3-DG2 (bispecific antibody)
chain 1: B1 chain 1 with D510A
chain 2: B1 chain 2
heavy: B1 heavy with D268A
light: B1 light
notes: structure 3; CEA x CD3; CH2 DG2CH2
B4: CEA-M3-DG2D (bispecific antibody)
chain 1: B1 chain 1 with D510A, D515A
chain 2: B1 chain 2
heavy: B1 heavy with D268A, D273A
light: B1 light
notes: structure 3; CEA x CD3; CH2 DG2DCH2
B5: CEA-M3-G2D (bispecific antibody)
chain 1: B1 chain 1 with D515A
chain 2: B1 chain 2
heavy: B1 heavy with D273A
light: B1 light
notes: structure 3; CEA x CD3; CH2 G2DCH2
B6: CEA-M3-GG2 (bispecific antibody)
chain 1: B1 chain 1 with C475G
chain 2: B1 chain 2
heavy: B1 heavy with C233G
light: B1 light
notes: structure 3; CEA x CD3; CH2 GG2CH2
B7: CEA-M3-PG2 (bispecific antibody)
chain 1: B1 chain 1 with C475P
chain 2: B1 chain 2
heavy: B1 heavy with C233P
light: B1 light
notes: structure 3; CEA x CD3; CH2 PG2CH2
B8: CEA-M3-SG2 (bispecific antibody)
chain 1: B1 chain 1 with C475S
chain 2: B1 chain 2
heavy: B1 heavy with C233S
light: B1 light
notes: structure 3 (fusion heavy chain, cross light chain, heavy, light; the light chain pairs with the heavy and with the fusion heavy chain); CEA x CD3; CH2 SG2CH2
B9: M2IC-WT (bispecific antibody, human IgG1, kappa)
chain: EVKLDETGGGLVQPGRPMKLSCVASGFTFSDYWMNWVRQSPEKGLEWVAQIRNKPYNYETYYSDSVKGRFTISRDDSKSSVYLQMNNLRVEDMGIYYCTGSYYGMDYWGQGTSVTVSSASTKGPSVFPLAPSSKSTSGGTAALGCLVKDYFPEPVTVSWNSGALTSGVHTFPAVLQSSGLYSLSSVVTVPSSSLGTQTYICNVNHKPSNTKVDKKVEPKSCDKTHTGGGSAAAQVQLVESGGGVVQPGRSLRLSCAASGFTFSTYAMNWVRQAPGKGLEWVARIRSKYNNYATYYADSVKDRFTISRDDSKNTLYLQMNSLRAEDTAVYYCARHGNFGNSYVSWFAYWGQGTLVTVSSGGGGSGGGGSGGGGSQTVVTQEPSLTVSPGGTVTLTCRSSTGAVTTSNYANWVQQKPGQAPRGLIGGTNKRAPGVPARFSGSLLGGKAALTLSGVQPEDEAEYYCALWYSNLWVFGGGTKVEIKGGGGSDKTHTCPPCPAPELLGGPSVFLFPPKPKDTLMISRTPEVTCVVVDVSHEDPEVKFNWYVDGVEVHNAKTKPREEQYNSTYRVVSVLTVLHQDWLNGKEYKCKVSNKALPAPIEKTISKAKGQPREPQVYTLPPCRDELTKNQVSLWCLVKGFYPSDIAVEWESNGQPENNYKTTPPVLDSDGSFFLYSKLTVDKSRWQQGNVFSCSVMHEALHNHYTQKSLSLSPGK
heavy: EVKLDETGGGLVQPGRPMKLSCVASGFTFSDYWMNWVRQSPEKGLEWVAQIRNKPYNYETYYSDSVKGRFTISRDDSKSSVYLQMNNLRVEDMGIYYCTGSYYGMDYWGQGTSVTVSSASTKGPSVFPLAPSSKSTSGGTAALGCLVKDYFPEPVTVSWNSGALTSGVHTFPAVLQSSGLYSLSSVVTVPSSSLGTQTYICNVNHKPSNTKVDKKVEPKSCDKTHTCPPCPAPELLGGPSVFLFPPKPKDTLMISRTPEVTCVVVDVSHEDPEVKFNWYVDGVEVHNAKTKPREEQYNSTYRVVSVLTVLHQDWLNGKEYKCKVSNKALPAPIEKTISKAKGQPREPQVCTLPPSRDELTKNQVSLSCAVKGFYPSDIAVEWESNGQPENNYKTTPPVLDSDGSFFLVSKLTVDKSRWQQGNVFSCSVMHEALHNRFTQKSLSLSPGK
light: DVVMTQTPLSLPVSLGDQASISCRSSQSLVHSNGNTYLRWYLQKPGQSPKVLIYKVSNRFSGVPDRFSGSGSGTDFTLKISRVEAEDLGVYFCSQSTHVPWTFGGGTKLEIKRTVAAPSVFIFPPSDEQLKSGTASVVCLLNNFYPREAKVQWKVDNALQSGNSQESVTEQDSKDSTYSLSSTLTLSKADYEKHKVYACEVTHQGLSSPVTKSFNRGEC
notes: structure 2 isotype control; CH2 WT
B10: M2IC-AAG (bispecific antibody, human IgG1, kappa, L234A L235A)
chain: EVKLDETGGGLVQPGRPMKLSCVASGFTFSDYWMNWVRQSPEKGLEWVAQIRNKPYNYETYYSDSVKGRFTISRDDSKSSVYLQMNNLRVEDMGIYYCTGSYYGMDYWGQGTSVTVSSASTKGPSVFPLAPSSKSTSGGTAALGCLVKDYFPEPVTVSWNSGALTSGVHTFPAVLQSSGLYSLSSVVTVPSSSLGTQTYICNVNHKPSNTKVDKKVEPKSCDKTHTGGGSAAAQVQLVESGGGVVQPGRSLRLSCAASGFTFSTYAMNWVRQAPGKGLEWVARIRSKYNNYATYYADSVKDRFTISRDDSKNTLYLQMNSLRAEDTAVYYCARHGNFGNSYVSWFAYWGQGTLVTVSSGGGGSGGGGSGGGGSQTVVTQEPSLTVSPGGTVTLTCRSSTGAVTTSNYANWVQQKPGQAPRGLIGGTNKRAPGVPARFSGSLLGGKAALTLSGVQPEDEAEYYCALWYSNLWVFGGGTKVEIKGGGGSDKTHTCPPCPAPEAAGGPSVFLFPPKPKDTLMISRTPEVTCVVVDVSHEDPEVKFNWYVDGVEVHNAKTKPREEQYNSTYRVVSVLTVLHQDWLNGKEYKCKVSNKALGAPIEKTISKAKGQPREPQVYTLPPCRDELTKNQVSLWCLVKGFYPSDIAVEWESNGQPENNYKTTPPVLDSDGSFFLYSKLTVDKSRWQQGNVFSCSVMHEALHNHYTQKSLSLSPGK
heavy: B9 heavy with L235A, L236A, P330G
light: B9 light
notes: structure 2 isotype control; CH2 AAG
B11: M2IC-FES (bispecific antibody, human IgG1, kappa)
chain: EVKLDETGGGLVQPGRPMKLSCVASGFTFSDYWMNWVRQSPEKGLEWVAQIRNKPYNYETYYSDSVKGRFTISRDDSKSSVYLQMNNLRVEDMGIYYCTGSYYGMDYWGQGTSVTVSSASTKGPSVFPLAPSSKSTSGGTAALGCLVKDYFPEPVTVSWNSGALTSGVHTFPAVLQSSGLYSLSSVVTVPSSSLGTQTYICNVNHKPSNTKVDKKVEPKSCDKTHTGGGSAAAQVQLVESGGGVVQPGRSLRLSCAASGFTFSTYAMNWVRQAPGKGLEWVARIRSKYNNYATYYADSVKDRFTISRDDSKNTLYLQMNSLRAEDTAVYYCARHGNFGNSYVSWFAYWGQGTLVTVSSGGGGSGGGGSGGGGSQTVVTQEPSLTVSPGGTVTLTCRSSTGAVTTSNYANWVQQKPGQAPRGLIGGTNKRAPGVPARFSGSLLGGKAALTLSGVQPEDEAEYYCALWYSNLWVFGGGTKVEIKGGGGSDKTHTCPPCPAPEFEGGPSVFLFPPKPKDTLMISRTPEVTCVVVDVSHEDPEVKFNWYVDGVEVHNAKTKPREEQYNSTYRVVSVLTVLHQDWLNGKEYKCKVSNKALPASIEKTISKAKGQPREPQVYTLPPCRDELTKNQVSLWCLVKGFYPSDIAVEWESNGQPENNYKTTPPVLDSDGSFFLYSKLTVDKSRWQQGNVFSCSVMHEALHNHYTQKSLSLSPGK
heavy: B9 heavy with L235F, L236E, P332S
light: B9 light
notes: structure 2 isotype control; CH2 FES

The binders below were run against T1, human CEA (assay: flow cytometry, human tumor cells (CEA+)).
Source text: (§1) 1) Cell preparation: T cells isolated from CD3-positive human whole blood were used for a CD3 end affinity detection of multifunctional antibody molecule; positive tumor cells of corresponding antigen were used for detecting affinity of tumor antigen; for example, CD38-positive MM. 1S cells (purchased from the Cell Resource Center of Shanghai Institutes for Biological Sciences, Chinese Academy of Sciences) or RPMI 8226 cells (purchased from the Cell Resource Center of Shanghai Institutes for Biological Sciences, Chinese Academy of Sciences) were used for CD38 antigen detection, and PD-L1 positive H358 cells (purchased from the Cell Resource Center of Shanghai Institutes for Biological Sciences, Chinese Academy of Sciences) were used for PD-L1 antigen detection, and so on. The cells were resuspended with 1% FBS-PBS, adjusted to a density of 4×10⁶/ml, and 50 μl of cells were taken from each well, and then plated at 2×10⁵ per well. Cell plating was operated on ice
(§2) 2) Addition of the antibody: according to the experimental design, the antibody was diluted gradually, and dilution of antibody was operated on ice. For example, the initial concentration of antibody for dilution was 3000 nM, and the antibody was diluted by 3 times with 11 concentration gradients. The diluted antibody was added to a cell well at 50 μl per well, mixed well, and shaked and incubated at 4° C. 1100 rpm/min for 2 h; after washing, the cells were resuspend in 1% FBS-PBS, and a diluted secondary antibody PE anti-human IgG FC (Biolegend, 409304) was added with a final concentration of 8 ug/ml and a volume of 50 μl/well. At the same time, a well only added with cells and secondary antibody was set as a control, the components were mixed well, and incubated under shaking at 1100 rpm/min at 4° C. for 1 h;
(§3) 5) Data analysis: the data was analyzed by a flow analysis software FlowJo 7.6 thereby obtaining an average fluorescence intensity of the specific antibody concentration, plotted by a Graphpad Prism 5 with the antibody concentration (nM) as an abscissa and the average fluorescence intensity as an ordinate; the EC50 value was calculated by the method of One site—Specific binding, and the EC50 value indicated the cell affinity of the antibody to the corresponding target antigen.

Which EC50 does the source give for B1 here?
The EC50 was 36.3 nM.

How did the EC50 turn out when B2 was run?
The EC50 was 38.1 nM.

For B3, which EC50 is on record?
The EC50 was 31.9 nM.

Which EC50 does the source give for B4 here?
Its EC50 is 34.2 nM.

B5 was tested. Which EC50 did it give?
The EC50 was 38.4 nM.

How did the EC50 turn out when B6 was run?
Its EC50 is 39.1 nM.

How did the EC50 turn out when B7 was run?
The EC50 was 41.9 nM.

With B8 as the binder, how does the EC50 read?
The EC50 was 30.5 nM.

Each binder was assayed against T3, Human CD3ε (human, UniProt P07766 23-126) (assay: flow cytometry, human T cells).
T3 construct: CD3 on T cells isolated from human whole blood
Source text: as §1, §2, §3

With B9 as the binder, how does the EC50 read?
Its EC50 is 499 nM.

How did the EC50 turn out when B10 was run?
Its EC50 is 515 nM.

With B11 as the binder, how does the EC50 read?
The EC50 was 411 nM.

With B1 as the binder, how does the EC50 read?
Its EC50 is 638 nM.

How did the EC50 turn out when B2 was run?
Its EC50 is 602 nM.

Which EC50 does the source give for B3 here?
The EC50 was 609 nM.

With B4 as the binder, how does the EC50 read?
Its EC50 is 611 nM.

Which EC50 does the source give for B5 here?
Its EC50 is 670 nM.

B6 was tested. Which EC50 did it give?
The EC50 was 695 nM.

Which EC50 does the source give for B7 here?
Its EC50 is 654 nM.

B8 was tested. Which EC50 did it give?
The EC50 was 631 nM.

What follows are binders tested against T4, Monkey CD3 (monkey) (assay: flow cytometry, monkey T cells).
T4 construct: whole, on cells; also called CD3 of monkey CD3 positive T cells

B9 was tested. Which EC50 did it give?
Its EC50 is 540 nM.

For B10, which EC50 is on record?
The EC50 was 528 nM.

How did the EC50 turn out when B11 was run?
The EC50 was 506 nM.

The binders below were run against T2, Human BCMA (assay: flow cytometry, human tumor cells (table of the BCMA series)).
Source text: as §1, §2, §3

Does B9 bind?
Result: no binding

Does B10 bind?
Result: no binding

Does B11 bind?
Result: no binding
